Numbered stars: 1 amine (or outer) side, 2 acyl side, 3 side chain; on linkers, the order of the positions; unused ones are H or OH. Bridge positions count the residues as written; N and C are the ends. Side chains are listed from the residue outwards. Ends that are not written are not given here. * marks the point of attachment. C20 diacid = O=C(O)CCCCCCCCCCCCCCCCCCC(=O)*; γGlu = O=C(O)[C@H](CCC(=O)[*:2])N[*:1]; AEEA = NCCOCCOCC(=O)O

To fix the notation:
T1: human amylin receptor (human, UniProt P30988 25-474; O60896 24-148, limits assumed)
T1 construct: whole, on cells; Calcitonin receptor plus RAMP-3 gives the amylin 3(a) receptor; membranes of Amylin 3(a)/CRE-luc cells were used; also called hAmylin-R; hAmylinR
T1 sequence (looked up) 1: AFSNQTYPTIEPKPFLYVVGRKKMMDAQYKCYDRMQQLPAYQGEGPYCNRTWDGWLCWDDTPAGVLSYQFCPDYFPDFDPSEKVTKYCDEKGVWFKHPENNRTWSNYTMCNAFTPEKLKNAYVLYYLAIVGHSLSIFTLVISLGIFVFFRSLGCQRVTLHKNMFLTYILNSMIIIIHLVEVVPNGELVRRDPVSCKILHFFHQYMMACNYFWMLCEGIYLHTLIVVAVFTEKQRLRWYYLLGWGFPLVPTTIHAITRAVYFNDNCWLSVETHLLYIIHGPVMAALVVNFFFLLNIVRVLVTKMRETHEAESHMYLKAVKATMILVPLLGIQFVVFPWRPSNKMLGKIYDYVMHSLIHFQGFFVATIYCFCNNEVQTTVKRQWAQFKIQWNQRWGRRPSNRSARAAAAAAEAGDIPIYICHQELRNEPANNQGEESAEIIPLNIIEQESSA
T1 sequence (looked up) 2: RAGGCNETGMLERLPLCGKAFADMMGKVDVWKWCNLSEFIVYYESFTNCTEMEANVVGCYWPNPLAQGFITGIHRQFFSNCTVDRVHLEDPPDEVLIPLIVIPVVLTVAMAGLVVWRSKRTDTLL

B1: N^ε1-[2-[2-[2-[[2-[2-[2-[[(4S)-4-carboxy-4-(19-carboxynonadecanoylamino)butanoyl]amino]ethoxy]ethoxy]acetyl]amino]ethoxy]ethoxy]acetyl]-[Arg17,Pro21,Pro27,Pro34 … (peptide)
peptide: K([AEEA-AEEA-γGlu-C20 diacid])CNTATCATQRLANFLRHSSPNFGAIPSSTNVGPNTY-NH2
modifications: disulfide 2-7; N-terminus assumed
SMILES: CC[C@H](C)[C@H](NC(=O)[C@H](C)NC(=O)CNC(=O)[C@H](Cc1ccccc1)NC(=O)[C@H](CC(N)=O)NC(=O)[C@@H]1CCCN1C(=O)[C@H](CO)NC(=O)[C@H](CO)NC(=O)[C@H](Cc1c[nH]cn1)NC(=O)[C@H](CCCNC(=N)N)NC(=O)[C@H](CC(C)C)NC(=O)[C@H](Cc1ccccc1)NC(=O)[C@H](CC(N)=O)NC(=O)[C@H](C)NC(=O)[C@H](CC(C)C)NC(=O)[C@H](CCCNC(=N)N)NC(=O)[C@H](CCC(N)=O)NC(=O)[C@@H](NC(=O)[C@H](C)NC(=O)[C@@H]1CSSC[C@H](NC(=O)[C@@H](N)CCCCNC(=O)COCCOCCNC(=O)COCCOCCNC(=O)CC[C@H](NC(=O)CCCCCCCCCCCCCCCCCCC(=O)O)C(=O)O)C(=O)N[C@@H](CC(N)=O)C(=O)N[C@@H]([C@@H](C)O)C(=O)N[C@@H](C)C(=O)N[C@@H]([C@@H](C)O)C(=O)N1)[C@@H](C)O)C(=O)N1CCC[C@H]1C(=O)N[C@@H](CO)C(=O)N[C@@H](CO)C(=O)N[C@H](C(=O)N[C@@H](CC(N)=O)C(=O)N[C@H](C(=O)NCC(=O)N1CCC[C@H]1C(=O)N[C@@H](CC(N)=O)C(=O)N[C@H](C(=O)N[C@@H](Cc1ccc(O)cc1)C(N)=O)[C@@H](C)O)C(C)C)[C@@H](C)O
notes: also called 17R, 21P, 27P, 34P
B2: N^ε1-[2-[2-[2-[[(4S)-4-carboxy-4-(19-carboxynonadecanoylamino)butanoyl]amino]ethoxy]ethoxy]acetyl]-[Arg14,Arg17,Pro21,Pro27]-h-amylin (peptide)
peptide: K([AEEA-γGlu-C20 diacid])CNTATCATQRLARFLRHSSPNFGAIPSSTNVGSNTY-NH2
modifications: disulfide 2-7; N-terminus assumed
SMILES: CC[C@H](C)[C@H](NC(=O)[C@H](C)NC(=O)CNC(=O)[C@H](Cc1ccccc1)NC(=O)[C@H](CC(N)=O)NC(=O)[C@@H]1CCCN1C(=O)[C@H](CO)NC(=O)[C@H](CO)NC(=O)[C@H](Cc1c[nH]cn1)NC(=O)[C@H](CCCNC(=N)N)NC(=O)[C@H](CC(C)C)NC(=O)[C@H](Cc1ccccc1)NC(=O)[C@H](CCCNC(=N)N)NC(=O)[C@H](C)NC(=O)[C@H](CC(C)C)NC(=O)[C@H](CCCNC(=N)N)NC(=O)[C@H](CCC(N)=O)NC(=O)[C@@H](NC(=O)[C@H](C)NC(=O)[C@@H]1CSSC[C@H](NC(=O)[C@@H](N)CCCCNC(=O)COCCOCCNC(=O)CC[C@H](NC(=O)CCCCCCCCCCCCCCCCCCC(=O)O)C(=O)O)C(=O)N[C@@H](CC(N)=O)C(=O)N[C@@H]([C@@H](C)O)C(=O)N[C@@H](C)C(=O)N[C@@H]([C@@H](C)O)C(=O)N1)[C@@H](C)O)C(=O)N1CCC[C@H]1C(=O)N[C@@H](CO)C(=O)N[C@@H](CO)C(=O)N[C@H](C(=O)N[C@@H](CC(N)=O)C(=O)N[C@H](C(=O)NCC(=O)N[C@@H](CO)C(=O)N[C@@H](CC(N)=O)C(=O)N[C@H](C(=O)N[C@@H](Cc1ccc(O)cc1)C(N)=O)[C@@H](C)O)C(C)C)[C@@H](C)O
notes: also called 14R, 17R, 21P, 27P
B3: N^ε1-[2-[2-[2-[[(4S)-4-carboxy-4-(19-carboxynonadecanoylamino)butanoyl]amino]ethoxy]ethoxy]acetyl]-[Arg17,Pro21,Pro27,Arg34]-h-amylin (peptide)
peptide: K([AEEA-γGlu-C20 diacid])CNTATCATQRLANFLRHSSPNFGAIPSSTNVGRNTY-NH2
modifications: disulfide 2-7; N-terminus assumed
SMILES: CC[C@H](C)[C@H](NC(=O)[C@H](C)NC(=O)CNC(=O)[C@H](Cc1ccccc1)NC(=O)[C@H](CC(N)=O)NC(=O)[C@@H]1CCCN1C(=O)[C@H](CO)NC(=O)[C@H](CO)NC(=O)[C@H](Cc1c[nH]cn1)NC(=O)[C@H](CCCNC(=N)N)NC(=O)[C@H](CC(C)C)NC(=O)[C@H](Cc1ccccc1)NC(=O)[C@H](CC(N)=O)NC(=O)[C@H](C)NC(=O)[C@H](CC(C)C)NC(=O)[C@H](CCCNC(=N)N)NC(=O)[C@H](CCC(N)=O)NC(=O)[C@@H](NC(=O)[C@H](C)NC(=O)[C@@H]1CSSC[C@H](NC(=O)[C@@H](N)CCCCNC(=O)COCCOCCNC(=O)CC[C@H](NC(=O)CCCCCCCCCCCCCCCCCCC(=O)O)C(=O)O)C(=O)N[C@@H](CC(N)=O)C(=O)N[C@@H]([C@@H](C)O)C(=O)N[C@@H](C)C(=O)N[C@@H]([C@@H](C)O)C(=O)N1)[C@@H](C)O)C(=O)N1CCC[C@H]1C(=O)N[C@@H](CO)C(=O)N[C@@H](CO)C(=O)N[C@H](C(=O)N[C@@H](CC(N)=O)C(=O)N[C@H](C(=O)NCC(=O)N[C@@H](CCCNC(=N)N)C(=O)N[C@@H](CC(N)=O)C(=O)N[C@H](C(=O)N[C@@H](Cc1ccc(O)cc1)C(N)=O)[C@@H](C)O)C(C)C)[C@@H](C)O
notes: also called 17R, 21P, 27P, 34R
B4: N^ε1-[2-[2-[2-[[(4S)-4-carboxy-4-(19-carboxynonadecanoylamino)butanoyl]amino]ethoxy]ethoxy]acetyl]-[Arg14,Arg17,Pro21,Pro27,Pro31]-h-amylin (peptide)
peptide: K([AEEA-γGlu-C20 diacid])CNTATCATQRLARFLRHSSPNFGAIPSSTPVGSNTY-NH2
modifications: disulfide 2-7; N-terminus assumed
SMILES: CC[C@H](C)[C@H](NC(=O)[C@H](C)NC(=O)CNC(=O)[C@H](Cc1ccccc1)NC(=O)[C@H](CC(N)=O)NC(=O)[C@@H]1CCCN1C(=O)[C@H](CO)NC(=O)[C@H](CO)NC(=O)[C@H](Cc1c[nH]cn1)NC(=O)[C@H](CCCNC(=N)N)NC(=O)[C@H](CC(C)C)NC(=O)[C@H](Cc1ccccc1)NC(=O)[C@H](CCCNC(=N)N)NC(=O)[C@H](C)NC(=O)[C@H](CC(C)C)NC(=O)[C@H](CCCNC(=N)N)NC(=O)[C@H](CCC(N)=O)NC(=O)[C@@H](NC(=O)[C@H](C)NC(=O)[C@@H]1CSSC[C@H](NC(=O)[C@@H](N)CCCCNC(=O)COCCOCCNC(=O)CC[C@H](NC(=O)CCCCCCCCCCCCCCCCCCC(=O)O)C(=O)O)C(=O)N[C@@H](CC(N)=O)C(=O)N[C@@H]([C@@H](C)O)C(=O)N[C@@H](C)C(=O)N[C@@H]([C@@H](C)O)C(=O)N1)[C@@H](C)O)C(=O)N1CCC[C@H]1C(=O)N[C@@H](CO)C(=O)N[C@@H](CO)C(=O)N[C@H](C(=O)N1CCC[C@H]1C(=O)N[C@H](C(=O)NCC(=O)N[C@@H](CO)C(=O)N[C@@H](CC(N)=O)C(=O)N[C@H](C(=O)N[C@@H](Cc1ccc(O)cc1)C(N)=O)[C@@H](C)O)C(C)C)[C@@H](C)O
notes: also called 14R, 17R, 21P, 27P, 31P
B5: N^ε1-[2-[2-[2-[[(4S)-4-carboxy-4-(19-carboxynonadecanoylamino)butanoyl]amino]ethoxy]ethoxy]acetyl]-[Ala14,Arg17,Pro21,Pro27,Pro31]-h-amylin (peptide)
peptide: K([AEEA-γGlu-C20 diacid])CNTATCATQRLAAFLRHSSPNFGAIPSSTPVGSNTY-NH2
modifications: disulfide 2-7; N-terminus assumed
SMILES: CC[C@H](C)[C@H](NC(=O)[C@H](C)NC(=O)CNC(=O)[C@H](Cc1ccccc1)NC(=O)[C@H](CC(N)=O)NC(=O)[C@@H]1CCCN1C(=O)[C@H](CO)NC(=O)[C@H](CO)NC(=O)[C@H](Cc1c[nH]cn1)NC(=O)[C@H](CCCNC(=N)N)NC(=O)[C@H](CC(C)C)NC(=O)[C@H](Cc1ccccc1)NC(=O)[C@H](C)NC(=O)[C@H](C)NC(=O)[C@H](CC(C)C)NC(=O)[C@H](CCCNC(=N)N)NC(=O)[C@H](CCC(N)=O)NC(=O)[C@@H](NC(=O)[C@H](C)NC(=O)[C@@H]1CSSC[C@H](NC(=O)[C@@H](N)CCCCNC(=O)COCCOCCNC(=O)CC[C@H](NC(=O)CCCCCCCCCCCCCCCCCCC(=O)O)C(=O)O)C(=O)N[C@@H](CC(N)=O)C(=O)N[C@@H]([C@@H](C)O)C(=O)N[C@@H](C)C(=O)N[C@@H]([C@@H](C)O)C(=O)N1)[C@@H](C)O)C(=O)N1CCC[C@H]1C(=O)N[C@@H](CO)C(=O)N[C@@H](CO)C(=O)N[C@H](C(=O)N1CCC[C@H]1C(=O)N[C@H](C(=O)NCC(=O)N[C@@H](CO)C(=O)N[C@@H](CC(N)=O)C(=O)N[C@H](C(=O)N[C@@H](Cc1ccc(O)cc1)C(N)=O)[C@@H](C)O)C(C)C)[C@@H](C)O
notes: also called 14A, 17R, 21P, 27P, 31P
B6: N^ε1-[2-[2-[2-[[(4S)-4-carboxy-4-(19-carboxynonadecanoylamino)butanoyl]amino]ethoxy]ethoxy]acetyl]-[Arg17,Pro21,Pro27,Arg35]-h-amylin (peptide)
peptide: K([AEEA-γGlu-C20 diacid])CNTATCATQRLANFLRHSSPNFGAIPSSTNVGSRTY-NH2
modifications: disulfide 2-7; N-terminus assumed
SMILES: CC[C@H](C)[C@H](NC(=O)[C@H](C)NC(=O)CNC(=O)[C@H](Cc1ccccc1)NC(=O)[C@H](CC(N)=O)NC(=O)[C@@H]1CCCN1C(=O)[C@H](CO)NC(=O)[C@H](CO)NC(=O)[C@H](Cc1c[nH]cn1)NC(=O)[C@H](CCCNC(=N)N)NC(=O)[C@H](CC(C)C)NC(=O)[C@H](Cc1ccccc1)NC(=O)[C@H](CC(N)=O)NC(=O)[C@H](C)NC(=O)[C@H](CC(C)C)NC(=O)[C@H](CCCNC(=N)N)NC(=O)[C@H](CCC(N)=O)NC(=O)[C@@H](NC(=O)[C@H](C)NC(=O)[C@@H]1CSSC[C@H](NC(=O)[C@@H](N)CCCCNC(=O)COCCOCCNC(=O)CC[C@H](NC(=O)CCCCCCCCCCCCCCCCCCC(=O)O)C(=O)O)C(=O)N[C@@H](CC(N)=O)C(=O)N[C@@H]([C@@H](C)O)C(=O)N[C@@H](C)C(=O)N[C@@H]([C@@H](C)O)C(=O)N1)[C@@H](C)O)C(=O)N1CCC[C@H]1C(=O)N[C@@H](CO)C(=O)N[C@@H](CO)C(=O)N[C@H](C(=O)N[C@@H](CC(N)=O)C(=O)N[C@H](C(=O)NCC(=O)N[C@@H](CO)C(=O)N[C@@H](CCCNC(=N)N)C(=O)N[C@H](C(=O)N[C@@H](Cc1ccc(O)cc1)C(N)=O)[C@@H](C)O)C(C)C)[C@@H](C)O
notes: also called 17R, 21P, 27P, 35R

The target of the test is T1, human amylin receptor. The experiment in a line: SPA competition binding, displacement of 125I-rat amylin from membranes with human amylin 3(a) receptor (Assay V). Summed up:
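One-site competition analysis of SPA counts yielded IC₅₀ as a measure of affinity. Membranes were at 35 ng/μL final; incubation was 120 min at 25° C, pH 7.4.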
Background: Loss of bound radioactivity is the signal in a displacement assay; it reports binding, not function.
For B1, the IC50 (as a rule, the point on the concentration scale where inhibition reaches its midpoint) amounted to 0.091 nM. This counts as picomolar. In turn, B2 returned an IC50 of 0.636 nM. For B3 the value was 0.602 nM. In the case of B4, the IC50 turned out to be 0.444 nM. For B5 the value was 0.172 nM; for B6, 0.249 nM.

These data come from patent US20140087995A1 (published 2014).
